The record followed here is the nanobody polyreactivity screen of Harvey et al. (2022).

The data set can be described thus: yeast display, Sf9 membrane polyspecificity reagent, FACS + sequencing; frameworks hold sequencing errors. The procedure, abridged: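 A nanobody's polyreactivity label depends on the gate it was sorted from. Yeast display cells were stained with 10% biotinylated, detergent-solubilized Sf9 membrane reagent for 1 hour at 4 °C, enriched on streptavidin microbeads and sorted by FACS. The low and high (top ~1%) gates were set on anti-HA fluorescence for expression and streptavidin fluorescence for reagent binding.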
Consider “QVQLVESGGGLVQAGGSLRLSCAASGFTFRGYAMGWYRQAPGKERELVAAITAGGGSTSYADSVKGRFTISRDNAKNTVYLQMNSLKPEDTGVYYCARRPGTRTYLSKWGSKYDYWGQGTQVTVSS”, for which the “polyreactivity (PSR sort gate)” value is given as “high polyreactivity”.

“QVQLVESGGGLVQAGGSLRLSCAASGFTFRGYVMGWYRQAPGKERELVAAITNIGTSTYYADSVKGRFTISRDNAKNTVYLQMNSLNPEDTAVYYCAARLRSIFYDWGLGTQVTVSS”: the “polyreactivity (PSR sort gate)” value is recorded as “low polyreactivity”.

With “QVQLVESGGGLVQAGGSLRLSCAASGFTFRHYAMGWYRQAPGKARQLVAAITKSGDSTYYADSVKWRFTISRDIAKKTVYLQMNSLNPEDTEVYYCATPYTLSRADNYWGQGTQVTVSS”, the “polyreactivity (PSR sort gate)” value is given as “low polyreactivity”.

As to “QVQLVESGGGLVQAGGSLRLSCAASGFTFRIYAMGWYRQAPGKERELVAAISWSGGSTYYADSVKGRFTISRDNAKNTVYLQMNSLKPEDTAVYYCATDSHRSQRHYAYDGDYWGQGTQVTVSS”, the “polyreactivity (PSR sort gate)” value is “high polyreactivity”.

Take “QVQLVESGGGLVQAGGSLRLSCAASGFTFRKYAMGWYRPAPGKERELVAAITANGGRTYYADSVKGRFTISRDNAKNTVYLQMNSLKPEDTAVYYCARDWGKSEYDYWGQGTQVTVSS”: the “polyreactivity (PSR sort gate)” value is “high polyreactivity”.

“QVQLVESGGGLVQAGGSLRLSCAASGFTFRKYAMGWYRQAPGKERELVAVINIVGSTYYADSVKGRFTISRDNAKNTVYLQMNSRKPEDTAVYYCAADWSYLLKYYWYGGFNYWGQGTQVTVSS”: the “polyreactivity (PSR sort gate)” value is given as “high polyreactivity”.

For the sequence “QVQLVESGGGLVQAGGSLRLSCAASGFTFRLYAMGWYRQAPGIERELVAAISSGGRTYYADSVKGRFTISRDNAKNTVYFQMNSLKPEDTAVNYCAVYPRDAERYGYWGQGSQVTVSS”, the “polyreactivity (PSR sort gate)” value is “high polyreactivity”.

In the case of “QVQLVESGGGLVQAGGSLRLSCAASGFTFRLYAMGWYRQAPGKERELVAAISSRGTTTYYADSVKGRFTNSRDNAKKTGYLQMNSLKPEDTAVYNCNKEYTSYGYDLEYDYWGQGTQVTVSS”, the “polyreactivity (PSR sort gate)” value is listed as “low polyreactivity”.

On to “QVQLVESGGGLVQAGGSLRLSCAASGFTFRNNAMGWYRQAPGKERELVAAISKRGSSTYYADSVKGRFTISRDNAKNTVYLQMNSLKPEDTAVYYCAASWLGASGIRYDYWGQGTQVTVSS”, for which the “polyreactivity (PSR sort gate)” value is given as “high polyreactivity”.

As for “QVQLVESGGGLVQAGGSLRLSCAASGFTFRQYAMGGYGQAPGKEREWVASIRNGGSTNYADSVKGRFTISRDNAKNTDYFQMITLKPEDTALYYCSQRHSRTNMYYWGQGTQVTVSS”, the “polyreactivity (PSR sort gate)” value is “high polyreactivity”.

Take “QVQLVESGGGLVQAGGSLRLSCAASGFTFRQYAMGWYRQAPGKERELVAAISRSGSRTYYADSVKGRFTISRDNAKNTVYLQMNSLKPEDTAVYYCNAVFSTFTGEYYWGQGSQVTVSS”: the “polyreactivity (PSR sort gate)” value is “high polyreactivity”.

Consider “QVQLVESGGGLVQAGGSLRLSCAASGFTFRRNGRGWYRPAPGKERELVAAIRGSDGSTYYADSVKGRFTISRDTAKNTVYLLMNSLKPADTAVYYCIVVGKGLYRKMGYWGQGTQVTVSS”, for which the “polyreactivity (PSR sort gate)” value is “high polyreactivity”.

As to “QVQLVESGGGLVQAGGSLRLSCAASGFTFRRYAKGWYRQATGKEREFVAAISIRGGRTNYADSVKGRFTISRDNAKNTVYLQMNSLKPEDTAVYYCAADGVYALDVESDYWGQGTQVTVSS”, the “polyreactivity (PSR sort gate)” value is listed as “high polyreactivity”.

“QVQLVESGGGLVQAGGSLRLSCAASGFTFRRYAMGWYRQAPGKERELVAAISRRGVTTYYADSVKGRFTISRDNAKNTVYLQMISLKPEDTAVYYCAADHNPSIGDDSWGQGTQVTVSS”: the “polyreactivity (PSR sort gate)” value is on record as “high polyreactivity”.

Regarding “QVQLVESGGGLVQAGGSLRLSCAASGFTFRRYAMGWYRQAPGKERELVAAISYSGGSTNYADSVKGRFTISRDNAKNTVYLQMNSLKPEDTAVYYCATTSRAWGRGYDYWGQGTQVTVSS”, the “polyreactivity (PSR sort gate)” value is on record as “low polyreactivity”.

Consider “QVQLVESGGGLVQAGGSLRLSCAASGFTFRRYAMGWYRQAPGKETELVAVITTAGSTNYADSVKGRFTISRDNAKNTVHLQMNSLIPEDTAVYYCATDNGTRKRRYDYWGQGTQVTVSS”, for which the “polyreactivity (PSR sort gate)” value was “low polyreactivity”.

Take “QVQLVESGGGLVQAGGSLRLSCAASGFTFRRYDMGWYRQAPGKERELVAAITASGGNTYYADSVKGRFTISRDNAKNTVYLQMNSLKPEDTAVYYCAARQYRYKYDYWGQGTQVTVSS”: the “polyreactivity (PSR sort gate)” value was “high polyreactivity”.

In the case of “QVQLVESGGGLVQAGGSLRLSCAASGFTFRSNAMGWYRQAPGKERELVAAISYSGDSTYYADSVKGRFTISRDNAKNTVYLQMNSLKPEDTAVYYCNAVGSGYRSWYDYWGQGTQVTVSS”, the “polyreactivity (PSR sort gate)” value is “high polyreactivity”.

On to “QVQLVESGGGLVQAGGSLRLSCAASGFTFRSNAMGWYRQAPGKERELVAAITRGGGSTYYADSVKGRFTISRDNEKNTVYLQMNSLKPEDTAVYYCAAGGFRTSRRDYWGQGTQVTVSS”, for which the “polyreactivity (PSR sort gate)” value is listed as “high polyreactivity”.

“QVQLVESGGGLVQAGGSLRLSCAASGFTFRSYAMGWYRQAPGKEREFVAAINGRSGSTYADSVKGRFTISRDNAKNTVYLQMTSLKPEDTAVYYCAARVRRGSTQAQYYYWGQGTQVTVSS”: the “polyreactivity (PSR sort gate)” value is given as “high polyreactivity”.

As to “QVQLVESGGGLVQAGGSLRLSCAASGFTFRSYTMGWYRQAPGKERELVARITRSCGNTYYADSVKGRFTISRDNAKNTVYVQMNSLKPEDTEGYYCASVYWGKYSAGNLLEYDYWGQGTQVTVSS”, the “polyreactivity (PSR sort gate)” value is “high polyreactivity”.

As to “QVQLVESGGGLVQAGGSLRLSCAASGFTFRSYVMGWYRQAPGKERELVASISSGGITKYADSVKGRFTISRDNAKNTVYLQMNSLKPEDTAVYYCNARTYSNTVLNYGLQYGYDYWGQGTQVTVSS”, the “polyreactivity (PSR sort gate)” value was “high polyreactivity”.

Regarding “QVQLVESGGGLVQAGGSLRLSCAASGFTFRTYAKGWYRQAPAKERELVADISGSGGSTYYADSVKGRFTISRDNAKNTVYLQMNSLKPEDTAVYYCAADYASWSNWGYEYWGQGTQVTVSS”, the “polyreactivity (PSR sort gate)” value was “high polyreactivity”.

For the sequence “QVQLVESGGGLVQAGGSLRLSCAASGFTFRTYAMGRYRQAPGTERELVAAINVSGGTYYADSVKGRFTISRDNAKNTVYLQMNSLKPEDSAVYYCTANRFRTGFDYWGQGTQVTVSS”, the “polyreactivity (PSR sort gate)” value is recorded as “low polyreactivity”.

Regarding “QVQLVESGGGLVQAGGSLRLSCAASGFTFRTYAMGWYRQAPGKERELVAAITGSGGSTYYADSVKGRFTISRDNAKNTVYLQMNSLKPEDTAVYYCNAVERSAFRGVRFDYDYWGQGTQVTVSS”, the “polyreactivity (PSR sort gate)” value is “high polyreactivity”.

Turning to “QVQLVESGGGLVQAGGSLRLSCAASGFTFRTYAMGWYRQAPGKEREYVAAINGRSGSTYADSVKGRFTISRDNAKNTVYLQMISLKPEDTAVYYCAARVRRGSTQAQFYYWGQGTQVTVSS”, the “polyreactivity (PSR sort gate)” value is on record as “high polyreactivity”.

Turning to “QVQLVESGGGLVQAGGSLRLSCAASGFTFRVYAMGWYRPAPGKERELVAAISVRGDSTYYADSVKGRFTISRDNAKNTVYLQMNSLKPEDTAVYYCNAALLGKQYYSNPNYDYWGQGTQVTVSS”, the “polyreactivity (PSR sort gate)” value is listed as “high polyreactivity”.

Regarding “QVQLVESGGGLVQAGGSLRLSCAASGFTFRVYAMGWYRQAPGKERELVAAITNSGGNTYYADSVKGRFTISRDNAKNTVYLQMNSLKPEDTAVYYCNRRYRYRFGYWGQGTQVTVSS”, the “polyreactivity (PSR sort gate)” value is given as “high polyreactivity”.

For “QVQLVESGGGLVQAGGSLRLSCAASGFTFRVYAMGWYRQAPGKERELVAAITRGGSTKYADSVKGRFTISRDNAKNTVYLQMNSLKPEDTAVYYCAARYNGKLNWGQGTQVSVSS”, the “polyreactivity (PSR sort gate)” value is reported as “high polyreactivity”.

Regarding “QVQLVESGGGLVQAGGSLRLSCAASGFTFRWYAMGWYRQAPGKERELVAAITSSGGSTYYADSVKGRFTISRDNAKNTVYLQMNSLKPEDTAVYYCNKRFLDLSYHDYDYWGQGTQVTVSS”, the “polyreactivity (PSR sort gate)” value was “high polyreactivity”.

Consider “QVQLVESGGGLVQAGGSLRLSCAASGFTFRWYAMGWYRQAPGKERELVARIRGSGGNTYYADSVKGRFTISRDNAKNTVYLQMNSLKPEDTAVYYCAAMQSPTRSFIYRFDYWGQGTQVTVSS”, for which the “polyreactivity (PSR sort gate)” value was “high polyreactivity”.

Consider “QVQLVESGGGLVQAGGSLRLSCAASGFTFRYNAMGWYRQAPGKERELVAAISRSGGRTYYADSVKGRFTIARDNAKNTVYLQMNSLKPEDTAVYYCAAVAARITGFGYWGQGTQVTVSS”, for which the “polyreactivity (PSR sort gate)” value is listed as “high polyreactivity”.

For “QVQLVESGGGLVQAGGSLRLSCAASGFTFRYNAMGWYRQAPGKERELVAAITWRGGRTYYADSVKGRFTISRDNAKNTVYLQMNSLKPEDTAVYYCAVYRTSTRYVVDSDYWGQGTQVTVSS”, the “polyreactivity (PSR sort gate)” value is “low polyreactivity”.

For “QVQLVESGGGLVQAGGSLRLSCAASGFTFRYNAMGWYRQAPGKKGSWVAAISRTGGSTYYADSVKGRFTISRDNAKNTVYLQMNSLKPEDTAVYYCATYSSRQRKSSYYYWGQGTQVTVSS”, the “polyreactivity (PSR sort gate)” value is given as “high polyreactivity”.

For “QVQLVESGGGLVQAGGSLRLSCAASGFTFRYYAMGWYRKAPGKERELVAAITRRGGSKYYADSVKGRFTISRDNAKNTVYLQMNSLKPEDTAVYDCAASLWTTSADYDYWGQGTQVTVSS”, the “polyreactivity (PSR sort gate)” value is listed as “high polyreactivity”.

For “QVQLVESGGGLVQAGGSLRLSCAASGFTFRYYAMGWYRQAPGKERELVAAISSGGNTRYADSVKGRFTISRDNAKNTVYLQMNSLKPEDTAVYYCARRPGAWKYVYTGDYWGQGTQVTVSS”, the “polyreactivity (PSR sort gate)” value is listed as “high polyreactivity”.

Turning to “QVQLVESGGGLVQAGGSLRLSCAASGFTFRYYAMGWYRQAPGKERELVAAISWRGGRTYYADSVKGRFTISRDNAKNTVYIQMNSLKPEDTAVYYCAALRERQTRGNYWGQGTQVTVSS”, the “polyreactivity (PSR sort gate)” value is listed as “high polyreactivity”.

As to “QVQLVESGGGLVQAGGSLRLSCAASGFTFRYYAMGWYRQAPGKERELVAAITRNGGSTYYADSVKGRFTISRDNAKHTVYLQMNSLKPEETAVYYCNRYGRQYDFYYWGQGTQVTVSS”, the “polyreactivity (PSR sort gate)” value is reported as “high polyreactivity”.

As for “QVQLVESGGGLVQAGGSLRLSCAASGFTFRYYTMGWYRQAPGKERELVARITTGGSTKYADSVKGRFTISRDNAKNTVYLQMNSLKPEDTAVYYCAARQYKWWFSQDGYDYWGQGTQVTVSS”, the “polyreactivity (PSR sort gate)” value is recorded as “high polyreactivity”.

As to “QVQLVESGGGLVQAGGSLRLSCAASGFTFRYYVMGWYRQAPGTERELVAAISWTGGSTYYADSVKGRFTISRDNAKNTVYLQMTSLKPEDTAVYYCNAASLSKSDYWGQGTQVTVSS”, the “polyreactivity (PSR sort gate)” value was “high polyreactivity”.

For “QVQLVESGGGLVQAGGSLRLSCAASGFTFSAYAMGWYRQAPGKERELVAAISWSGSRTYYADSVKGRFTISRDNAKNTVYLQMNSLKPEDTAVYYCAKEPYDTFGFYEYDYWGQGTQVTVSS”, the “polyreactivity (PSR sort gate)” value is reported as “low polyreactivity”.
